# Assay results taken from patent US20230125550A1 (ARCELLX, published 2023).
# Substitutions are numbered along the chain they refer to.
# T1: recombinant human CD123-Fc (human, UniProt P26951 19-305)
# T1 construct: not shown: Fc part of CD123-Fc
# T1 sequence: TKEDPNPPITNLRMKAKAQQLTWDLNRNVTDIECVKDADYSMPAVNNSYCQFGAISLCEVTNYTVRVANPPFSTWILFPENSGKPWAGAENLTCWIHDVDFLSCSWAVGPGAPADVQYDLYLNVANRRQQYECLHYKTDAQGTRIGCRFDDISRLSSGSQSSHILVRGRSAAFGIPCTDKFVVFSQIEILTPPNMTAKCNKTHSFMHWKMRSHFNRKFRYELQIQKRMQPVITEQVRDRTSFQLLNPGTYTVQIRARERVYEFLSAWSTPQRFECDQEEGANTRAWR
# B1: SEQ ID NO: 469 (designed binder)
# chain: MGSWEEFKEDLAEIKVWLEALGGSEAELAWFEMGIADFEDGLQFYKGKGNPEVEALRKEAAAIRDELQAYRHN
# notes: D domain, on phage
# B2: SEQ ID NO: 470 (designed binder)
# chain: B1 chain with E5H, E6W, E13N, V16D, M33D, G34N, D40G, G41D, F44V
# notes: D domain, on phage
# B3: SEQ ID NO: 471 (designed binder)
# chain: MGSWFWFKEDLAFIKEDLEALGGSEAELAWFEDGIAFFEWDLQDYKGKGNPEVEALRKEAAAIRDELQAYRHN
# notes: D domain, on phage
# B4: SEQ ID NO: 472 (designed binder)
# chain: B3 chain with F5Q, F13E, E16H, G34F, F37Q, W40F, D44W
# notes: D domain, on phage
# B5: SEQ ID NO: 473 (designed binder)
# chain: B3 chain with F5H, F13I, E16Q, W30T, D33Q, G34W, F37E, D44E
# notes: D domain, on phage
# B6: SEQ ID NO: 474 (designed binder)
# chain: B3 chain with F5N, F13I, E16M, D33H, G34N, F37G, W40F, D41E, D44G
# notes: D domain, on phage
# B7: SEQ ID NO: 475 (designed binder)
# chain: MGSWSWFKEDLAEIKMELEALGGSEAELAYFEWYIAEFEFQLQHYKGKGNPEVEALRKEAAAIRDELQAYRHN
# notes: D domain, on phage
# B8: SEQ ID NO: 476 (designed binder)
# chain: B7 chain with E9Q, E13D, M16I, E17Q, Y30W, Y34D, Q41E, H44D
# notes: D domain, on phage
# B9: SEQ ID NO: 477 (designed binder)
# chain: B7 chain with E13D, M16F, Y30W, W33L, Y34D, E37D, F40Q, Q41A, H44Q
# notes: D domain, on phage
# B10: SEQ ID NO: 478 (designed binder)
# chain: B7 chain with E13S, M16A, E17V, Y30F, W33S, Y34D, F40Q, Q41E, H44Y
# notes: D domain, on phage
# B11: SEQ ID NO: 479 (designed binder)
# chain: B1 chain with E5W, V16W, W17F, M33H, G34D, D37K, D40F, G41E, F44Y
# notes: D domain, on phage
# B12: SEQ ID NO: 481 (designed binder)
# chain: MGSWNEFKDDLAMIKMTLEALGGSEAELAWFEHDIAEFEDDLQWYKGKGNPEVEALRKEAAAIRDELQAYRHN
# notes: D domain, on phage
# B13: SEQ ID NO: 480 (designed binder)
# chain: B12 chain with N5E, E6W, D9S, M13S, M16W, T17E, D40E
# notes: D domain, on phage
# B14: SEQ ID NO: 483 (designed binder)
# chain: B12 chain with N5S, E6D, M13E, T17I, W30Y, H33N, E37W, W44E
# notes: D domain, on phage
# B15: SEQ ID NO: 484 (designed binder)
# chain: B12 chain with N5S, E6M, M13E, M16A, T17S, H33D, E37W, W44H
# notes: D domain, on phage
# B16: SEQ ID NO: 485 (designed binder)
# chain: B12 chain with N5Q, E6Y, M13E, T17V, H33A, E37M, W44I
# notes: D domain, on phage
# B17: SEQ ID NO: 482 (designed binder)
# chain: B12 chain with N5T, E6F, M13E, M16W, T17M, H33S, E37Y, D41E
# notes: D domain, on phage
# B18: SEQ ID NO: 486 (designed binder)
# chain: MGSWSFFKDDLAEIKYFLEALGGSEAELAMFEQTIAEFEYDLQDYKGKGNPEVEALRKEAAAIRDELQAYRHN
# notes: D domain, on phage
# B19: SEQ ID NO: 487 (designed binder)
# chain: B18 chain with S5M, F6E, D9E, D10E, F17I, M30W, T34S, E37D
# notes: D domain, on phage
# B20: SEQ ID NO: 488 (designed binder)
# chain: B1 chain with E5A, E6W, W17F, W30E, M33V, G34S, D40Y, G41E, F44D
# notes: D domain, on phage
# B21: SEQ ID NO: 489 (designed binder)
# chain: B3 chain with F5Y, W6E, E9F, F13E, D17Q, W30L, G34D, W40Y, D44N
# notes: D domain, on phage
# B22: SEQ ID NO: 490 (designed binder)
# chain: MGSWYDFKYDLAEIKMDLEALGGSEAELAQFEFDIAFFEEELQDYKGKGNPEVEALRKEAAAIRDELQAYRHN
# notes: D domain, on phage
# B23: SEQ ID NO: 491 (designed binder)
# chain: B7 chain with S5Y, W6I, M16E, W33E, Y34E, E37L, F40M, Q41E, H44W
# notes: D domain, on phage
# B24: SEQ ID NO: 492 (designed binder)
# chain: MGSWVLFKEELAYIKFELEALGGSEAELALFENVIAIFESNLQNYKGKGNPEVEALRKEAAAIRDELQAYRHN
# notes: D domain, on phage
# B25: SEQ ID NO: 493 (designed binder)
# chain: MGSWQDFKEDLAWIKYELEALGGSEAELAFFEYDIAIFENNLQHYKGKGNPEVEALRKEAAAIRDELQAYRHN
# notes: D domain, on phage
# B26: SEQ ID NO: 494 (designed binder)
# chain: MGSWDHFKNDLAWIKKHLEALGGSEAELAEFEAVIAYFELYLQGYKGKGNPEVEALRKEAAAIRDELQAYRHN
# notes: D domain, on phage
# B27: SEQ ID NO: 495 (designed binder)
# chain: MGSWYDFKEDLADIKWMLEALGGSEAELAEFENVIAYFENDLQEYKGKGNPEVEALRKEAAAIRDELQAYRHN
# notes: D domain, on phage
# B28: SEQ ID NO: 496 (designed binder)
# chain: B3 chain with F5Y, W6M, D10E, F13D, E16W, D17Y, G34D, F37G, D44A
# notes: D domain, on phage
# B29: SEQ ID NO: 497 (designed binder)
# chain: MGSWYYFKDELADIKWDLEALGGSEAELAWFEMLIAQFELDLQWYKGKGNPEVEALRKEAAAIRDELQAYRHN
# notes: D domain, on phage
# B30: SEQ ID NO: 498 (designed binder)
# chain: B29 chain with Y5M, E10T, D17Y, W30F, M33D, L34W, Q37E, L40D, W44V
# notes: D domain, on phage
# B31: SEQ ID NO: 499 (designed binder)
# chain: B29 chain with Y6Q, D9H, E10D, W16Y, D17G, M33D, L34D, Q37D, W44Y
# notes: D domain, on phage
# B32: SEQ ID NO: 500 (designed binder)
# chain: B27 chain with D6V, E9D, W16Y, E30W, N33W, V34E, Y37N, N40F, E44Y
# notes: D domain, on phage
# B33: SEQ ID NO: 501 (designed binder)
# chain: MGSWNFFKYDLADIMAYLEALGGSEAELAFFEDEIANFEHDLQKYKGKGNPEVEALRKEAAAIRDELQAYRHN
# notes: D domain, on phage
# B34: SEQ ID NO: 502 (designed binder)
# chain: MGSWHWFKIVLADIKDGLEALGGSEAELAYFETTIADFEMDLQHYKGKGNPEVEALRKEAAAIRDELQAYRHN
# notes: D domain, on phage
# B35: SEQ ID NO: 503 (designed binder)
# chain: B34 chain with Q43H
# notes: D domain, on phage
# B36: SEQ ID NO: 504 (designed binder)
# chain: MGSWFMFKEELADIKDWLEALGGSEAELASFESYIAWFEQDLQWYKGKGNPEVEALRKEAAAIRDELQAYRHN
# notes: D domain, on phage
# B37: SEQ ID NO: 505 (designed binder)
# chain: B3 chain with W6M, E9Q, D10E, F13W, W30D, D33W, G34D, F37E, D44Y
# notes: D domain, on phage
# B38: SEQ ID NO: 506 (designed binder)
# chain: MGSWQIFKGELAYIKQYLEALGGSEAELAFFEFDIAEFEEDLQYYKGKGNPEVEALRKEAAAIRDELQAYRHN
# notes: D domain, on phage
# B39: SEQ ID NO: 507 (designed binder)
# chain: B38 chain with Q5D, I6F, G9E, Y13E, Q16H, D34W, E37D, E40Q, Y44E
# notes: D domain, on phage
# B40: SEQ ID NO: 508 (designed binder)
# chain: MGSWFNFKEELAVIKFQLEALGGSEAELAFFEWVIADFEDDLQEYKGKGNPEVEALRKEAAAIRDELQAYRHN
# notes: D domain, on phage
# Biological target: T1, recombinant human CD123-Fc
# Test: phage ELISA, captured CD123-Fc
# Summary of the method: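 Readout is the clone-averaged A450 ratio of target-Fc over IgG1-Fc wells, detected with HRP-conjugated anti-M13. Each Fc protein (5 nM) was captured on goat anti-human IgG1-Fc-coated plates. Phage were rescued with VCSM13 from BCMA-panning colonies and added at 5× dilution.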
row,Binder,ELISA_avg [ratio A450 target/IgG1-Fc]
1,B1,4.3
2,B2,3.3
3,B3,13.7
4,B4,3.8
5,B5,5.5
6,B6,3.1
7,B7,4.8
8,B8,4
9,B9,6.8
10,B10,6.9
11,B11,5.1
12,B12,3.5
13,B13,5.7
14,B14,4.7
15,B15,5.2
16,B16,3.6
17,B17,3.3
18,B18,10.1
19,B19,5
20,B20,3.5

row,Binder,ELISA_avg [ratio A450 target/IgG1-Fc]
1,B21,4.6
2,B22,3.2
3,B23,11.1
4,B24,3.5
5,B25,3.2
6,B26,3.3
7,B27,8
8,B28,7
9,B29,4
10,B30,3.1
11,B31,4.7
12,B32,3.8
13,B33,4.4
14,B34,4.3
15,B35,3.5
16,B36,5.7
17,B37,7.2
18,B38,4.7
19,B39,3.7
20,B40,6.1
